For this assay, the target named is TNF receptor-associated factor 2 (TRAF2) (human (endogenous in HEK-293T)) (UniProt Q12933). As to the kind of experiment: co-IP; lysates of HEK-293T cells transfected with Tyr52 or Cys52 FBXO7-EGFP and treated with MG-132 (5 uM, 24 h); 100 ug protein immunoprecipitated with mouse anti-TRAF2 antibody on protein G beads in IP lysis buffer (25 mM Tris-HCl pH 7.4, 150 mM NaCl, 1% NP-40, 1 mM EDTA, 5% glycerol); blot with anti-EGFP; normal IgG as negative control.

FBXO7-TRAF2 interaction in co-IP, percent of Tyr52 FBXO7-EGFP data for one substance are collected here from PMC4100735.

UniProt Q12933, sequence (Q12933 whole entry): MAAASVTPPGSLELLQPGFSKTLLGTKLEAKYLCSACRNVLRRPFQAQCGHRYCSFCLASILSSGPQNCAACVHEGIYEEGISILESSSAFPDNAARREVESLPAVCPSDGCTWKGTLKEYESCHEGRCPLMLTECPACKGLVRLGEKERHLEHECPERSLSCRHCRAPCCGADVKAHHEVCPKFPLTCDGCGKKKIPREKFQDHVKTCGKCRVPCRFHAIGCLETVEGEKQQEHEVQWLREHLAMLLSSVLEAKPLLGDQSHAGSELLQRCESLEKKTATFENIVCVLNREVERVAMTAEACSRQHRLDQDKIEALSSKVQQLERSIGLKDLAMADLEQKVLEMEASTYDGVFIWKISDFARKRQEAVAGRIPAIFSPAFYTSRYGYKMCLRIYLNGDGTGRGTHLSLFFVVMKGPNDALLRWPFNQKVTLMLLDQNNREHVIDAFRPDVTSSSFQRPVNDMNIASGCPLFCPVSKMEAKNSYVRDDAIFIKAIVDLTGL

“Cys52 FBXO7-EGFP (F-box only protein 7 Y52C variant, isoform 1, EGFP-tagged) (from UniProt Q9Y3I1-1 1-522) (natural protein)” returned an FBXO7-TRAF2 interaction in co-IP, percent of Tyr52 FBXO7-EGFP of 367%.
